# Measured values from the supplement of paper PMC9170038.
# Tests used:
# [1] = system: MS2 coat protein; test: apparent KD of MS2 coat protein, switch OFF state (with FMN for OFF switches, without FMN for ON switches); designed switch direction (-1 OFF switch, 1 ON switch): 1; higher = weaker reporter binding; details: FMN input: 0 or 200 uM; Eterna round: R93 (includes R88 designs)
# Summary of the method: (§1)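 The buffer was 100 mM Tris-HCl pH 7.5 with 80 mM KCl and 4 mM MgCl2, used without or with constant ligand. In it, RNA switches transcribed on-chip from Illumina sequencing clusters were titrated with SNAP-549-labelled MS2 coat protein in twofold steps from 0.7 or 1.5 nM to 3 µM. Apparent KD for each design is the median of its normalised cluster binding-curve fits.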
# [2] = system: MS2 coat protein; test: apparent KD of MS2 coat protein, switch ON state; designed switch direction (-1 OFF switch, 1 ON switch): 1; higher = weaker reporter binding; details: FMN input: 0 or 200 uM; Eterna round: R93 (includes R88 designs)
# Summary of the method: as §1
Sequence,apparent KD of MS2 coat protein [1] [nM],apparent KD of MS2 coat protein [2] [nM]
AUAAAUAAUGGUAAGGAUAUCCAAAAGAAAACAUGAGGAUCACCCAUGUAAAAGAAAAUAGUGUGGGAGAAGGUACCAUAUAAAU [SS2 M 15],41.6,18.6
GAAAAACAUGAGGAUCACCCAUGUGAAAAUAUGGGAGGAUAUACAAAGACGAAAGUCAAAGUAGAAGGCCUAAGAG [Garnet 34],72,22.1
"AAACCACAUGAGGAUCACCCAUGUCAAGAGAGACUAGGAUAUCUGAAUUAAUUAAAUUAAGGAGAAGGAGUGAAAA [71%, Same state of confusion2, 3]",179,52.8
AAAACACAUGAGGAUCACCCAUGUAAAAACAUGGGAGGAUAUGCAUGGAAAACAUGCUAUGCAGAAGGCUCAUGUG [SS1 - 6],17.2,14.9
AGGAGACAUGAGGAUCACCCAUGUGAGAAGAGGCGAGGAUAUCGAAAGAAAGAAGAGAAACGAGAAGGCGCGAGGC [salish99-SS1-031],23.5,27
AAAAAAAAAAGGCAGGAUAUCCAAAAAAAAACAUGAGGAUCACCCAUGUAAAAAAAAAAAAAAUGGGAGAAGGGCCAAAAAAAAA [Mat - Same State 2 - Rerun Eli mod - D85],64.4,63.1
GAAAAACAUGAGGAUCACCCAUGUAGAAAUAUGGGAGGAUAUACGAAGACGAAAGUCAAAGUAGAAGGCCUAAAGA [Mat - Same State 1 - Eli mod - D103],70.4,26.5
GAAAAACAUGAGGAUCACCCAUGUAGAAAUAUGGGAGGAUAUUCAAAGACGAAAGUCAAAGAAGAAGGCCUAAAAG [Mat - Same State 1 - Eli mod - 36],113,29.1
AGAAAACAUGAGGAUCACCCAUGUCAAAUAAGUCAAGGAUAUGGGACUCCGCGAGAGUCGCCAGAAGGUGAGAAAA [Aatrara],49.5,17.5
GGGAGACAUGAGGAUCACCCAUGUGAGAAGAGGCGAGGAUAUCGAAAGAAAGAAGAGAAACGAGAAGGCGCGAGCG [salish99-SS1-060],86.7,32.5
AAUACACAUGGUCAGGAUAUCGCAGCUAGGACAUGAGGAUCACCCAUGUCGUACGUAAAAGUAAAUGAGAAGGGACAGGGUGACC [JR_SS002_Sub407],30,37.8
GAAAAACAUGAGGAUCACCCAUGUGAGAAUAUGGAAGGAUAUACAAAGACGAGAGUCAAAGUAGAAGGUCUAAAAG [Mat - Same State 1 - Eli mod - D21],31.7,22.1
AAAAAAAAAACUCAGGAUAUAGAUAAUUGAACAUGAGGAUCACCCAUGUAGUGAAAAAAAAAAAAUUAGAAGGGAGGAAAAAAAAA [SameState2-01],45.4,52.9
GUGGUGUAGAUACAGGAUAUGUUGCUCGUAACAUGAGGAUCACCCAUGUAUCUAUGAGAUUAAAUGCAGAAGGGUGCACACCACG [Maerveen],374,17.3
AGGAAACAUGAGGAUCACCCAUGUAAAAGGUGGGUAGGAUAUGCGAAAAGAAAAAGAAAAGCAGAAGGGCCAAGAA [something completely different],133,41.9
AAUAAGACUAGCAAGGAUAUCGAAAACGAGACAUGAGGAUCACCCAUGUAACAAGUAUAAGUAUACGAGAAGGUGCAGGGUGUAA [JR_SS002_Sub302],36.9,174
AAACAGCACAGGUAGGAUAUGUAGGGUGGUACAUGAGGAUCACCCAUGUAUCCACCCUUCGAAAGGCAGAAGGGCCUGCCGCUGC [Cealaes],16.6,15.4
AUAAAACAUGAGGAUCACCCAUGUAGACAUAUGGGAGGAUAUACUAGAUCGAAAGAUCUAGUAGAAGGCCUUUAUA [JL Mod of Eli 8],54.2,19.2
UUUAAUUACACGAAGGAUAUCGAUUUUCAGACAUGAGGAUCACCCAUGUAGUAGAUUUCCCUGUUCGAGAAGGUCGCGGGUGAAC [JR_SS002_Sub602],30.3,39.3

Sequence,apparent KD of MS2 coat protein [1] [nM],apparent KD of MS2 coat protein [2] [nM]
AGCAUAGACAGAGAGGAUAUCCACGAGACAACAUGAGGAUCACCCAUGUGAUAGAGAAUACGAUGGGAGAAGGCUCGCGGUACGA [Topaz 50],61.3,13.9
GAGAAGAAGAGAGAGGAUAUCCAAAGGAAAACAUGAGGAUCACCCAUGUAAAAGGUAGGAAAUUGGGAGAAGGCUCAGAAGAGGG [salish99-ss2-030],26.6,23.2
AAAGAAAAACUAGAGGAUAUUUGAGUGGUAACAUGAGGAUCACCCAUGUGAAGAAAAGAACAUGAGGAGAAGGCUAGAAGAAAAA [JL Nando mod 15],42.3,23.1
AUAUAUAUAAGGUAGGAUAUGCUAAAGUAAACAUGAGGAUCACCCAUGUAAAGAAAGAAACUCAUGUAGAAGGGCCAUAUAUAUA [viburnum 6],408,163
AAAAAACAUGAGGAUCACCCAUGUAAACCUCAUGUAGGAUAUACAAAAAAAAAAAAAAAAGUAGAAGGACAAAAAA [Omei A variation 2],1970,4790
AAUAUAUUAAGUGAGGAUAUCGAGGAAAAAACAUGAGGAUCACCCAUGUGGGAAACCUGGUCGGGUGAGAAGGCACUUAAUAUAU [Samwise Clockwise 26 - Jieux - Same State 2],76.7,19.8
AGUCCACAUGAGGAUCACCCAUGUCUGGAGAAGACAGGAUAUAAGGAAAAAAAAAAAAACUUAGAAGGGUCAAAAA [Bexeusisus],49.5,26.8
AGAAAGAAUAGAGAGGAUAUCUAUAAGAAAACAUGAGGAUCACCCAUGUAAAAGAAAAGAAAAUGGGAGAAGGCUCAUAAGAAAG [JL Skelter Mod 6 In the Red],71.6,186
AAGAUACAUGAGGAUCACCCAUGUUAAGAGAGAUGAGGAUAUCCGAAUUAAUUAAAUUAAGGAGAAGGCAUGAAAA [LROPPY Same State 1 - v02_deltaG=2.1],26.9,18.2
CGAGAACAUGAGGAUCACCCAUGUAAUGAAUGGUCAGGAUAUGGAGAUAGAUGACAAGCGCCAGAAGGGACAUCAG [JR_SS001_Sub1001],53.9,42.9
UAUCAUUACACGAAGGAUAUCGAAAAAAGAACAUGAGGAUCACCCAUGUGAAAUAAAAUACAGAACGAGAAGGUCGAGGGUGAAG [JR_SS002_Sub702],30.3,23.1
GCUCCAGCUAGCAAGGAUAUGUAGGAUGCUACAUGAGGAUCACCCAUGUGCUGAAAUAAGUCCCGGCAGAAGGUGUGACUGGAGC [Quleorla],19.9,13.8
AAAAAACAUGAGGAUCACCCAUGUCUUUUGACAUGAGGAUAUGUACAGACUUCGGUCUGUACAGAAGGCAUGAAAA [SS1 - 1029],432,48.4
AAGAAAGAAACGCAGGAUAUGCAAAACAAAACAUGAGGAUCACCCAUGUCAAACAAACAAACAAAGCAGAAGGGCGAAAGAAAGAA [Same State 2 AA],21.3,18.1
AAAAAACAUGAGGAUCACCCAUGUAAAAAAAUCGCAGGAUAUAGGGUCGCGAAAGCGACCCUAGAAGGGCGAUCCU [Louisiana 2 - Jieux - Same State 1],76.1,52
GAGGACAUAGUAUAGGAUAUAUGAAUAAUUACAUGAGGAUCACCCAUGUCCAUUUAUAUGGGAACAUAGAAGGGUGGUAGUUAUC [SameState2 Malc#33],202,102
AGAAAACAUGAGGAUCACCCAUGUGAUAAUAUGGGAGGAUAUACGAAGACGAAAGUCGACGUAGAAGGCCUAAAGA [Garnet 48],70.8,35.3
AAGAAACAUGAGGAUCACCCAUGUGAUAAUAUGGGAGGAUAUACGAAGUCGAAAGUCGAAGUAGAAGGCCUAAGAA [Garnet 41],186,49
AAAUAAAAAAAAGAGGAUAUUCAUGUGAAAACAUGAGGAUCACCCAUGUAAAAAAAUAAAAAUAAAAAGAAGGAAAAAUAAAAAA [SS2: 83 No MS2],25.1,23.6
